Test results taken from the supplement of paper PMC9876800.

Tested on: peptide library, one residue held at a place counted from the S/T acceptor
Test: relative phosphorylation of the sub-library (ratio to the mean residue at this position); higher = residue favoured
Conditions: human
Method in brief: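 In 384-well plates, purified recombinant kinases (human or orthologue constructs) were incubated for 90 min under kinase-specific conditions with 50 μM biotinylated degenerate peptide sub-libraries and 50 μM ATP spiked with γ-32P-ATP. Each sub-library fixed a single residue at one position around a central Ser/Thr. Relative sub-library phosphorylation, measured by phosphorimaging and densitometry of streptavidin membrane spots, is given as a ratio to the mean residue at that position.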

Sequence of STK4, construct: Full length (Q13043 whole entry, looked up): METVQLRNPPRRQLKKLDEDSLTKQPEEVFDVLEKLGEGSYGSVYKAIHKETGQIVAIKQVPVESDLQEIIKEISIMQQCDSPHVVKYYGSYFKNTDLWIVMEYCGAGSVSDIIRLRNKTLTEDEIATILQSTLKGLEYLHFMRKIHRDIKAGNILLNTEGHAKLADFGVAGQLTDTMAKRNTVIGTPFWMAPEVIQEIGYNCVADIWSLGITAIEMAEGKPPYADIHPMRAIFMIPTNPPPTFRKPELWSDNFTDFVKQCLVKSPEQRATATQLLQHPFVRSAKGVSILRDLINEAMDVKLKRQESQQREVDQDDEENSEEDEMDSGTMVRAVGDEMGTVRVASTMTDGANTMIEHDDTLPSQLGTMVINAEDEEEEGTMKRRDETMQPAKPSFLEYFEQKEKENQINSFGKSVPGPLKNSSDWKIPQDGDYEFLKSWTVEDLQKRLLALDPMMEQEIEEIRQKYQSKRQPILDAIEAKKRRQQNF
Sequence of MYO3B, construct: aa1-326 (Q8WXR4 1-326, looked up): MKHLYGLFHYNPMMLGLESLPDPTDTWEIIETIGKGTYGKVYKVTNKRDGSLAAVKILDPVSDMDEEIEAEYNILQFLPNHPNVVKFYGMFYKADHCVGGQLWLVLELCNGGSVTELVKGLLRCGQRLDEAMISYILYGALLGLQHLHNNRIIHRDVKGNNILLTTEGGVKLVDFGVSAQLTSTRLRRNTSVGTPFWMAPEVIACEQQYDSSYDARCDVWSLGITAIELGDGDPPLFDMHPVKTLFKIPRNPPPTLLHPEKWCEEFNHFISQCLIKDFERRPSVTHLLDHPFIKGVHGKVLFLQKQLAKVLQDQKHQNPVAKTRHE

MYO3B, construct: aa1-326 (from UniProt Q8WXR4)
relative phosphorylation
Conditions | at +1 | at +2 | at +3 | at +4 | at -1 | at -2 | at -3 | at -4 | at -5
A fixed | 0.835 | 0.824 | 0.907 | 0.917 | 1.11 | 0.997 | 1.06 | 0.977 | 1.15
D fixed | 0.195 | 0.346 | 0.286 | 0.408 | 0.679 | 0.489 | 0.538 | 0.954 | 0.81
E fixed | 0.182 | 0.272 | 0.222 | 0.412 | 0.633 | 0.316 | 0.576 | 0.933 | 0.843
F fixed | 0.583 | 0.641 | 0.831 | 0.682 | 0.908 | 1.44 | 1.07 | 1.05 | 1.01
G fixed | 0.936 | 0.951 | 1.04 | 1.24 | 1.61 | 1.32 | 1.8 | 1.33 | 1.38
H fixed | 0.628 | 1.1 | 1.01 | 1.03 | 1.18 | 1.25 | 1.13 | 1.14 | 1.08
I fixed | 1.1 | 0.515 | 0.595 | 0.683 | 0.38 | 0.578 | 0.728 | 0.783 | 0.787
K fixed | 2.3 | 2.56 | 2.29 | 2.28 | 0.958 | 0.787 | 0.946 | 1.04 | 1.14
L fixed | 1.53 | 0.724 | 0.838 | 0.663 | 0.945 | 0.713 | 0.901 | 0.82 | 0.757
M fixed | 1.57 | 0.756 | 0.71 | 0.714 | 1.33 | 0.857 | 1.11 | 0.939 | 0.947
N fixed | 0.754 | 0.835 | 0.911 | 1.03 | 1.28 | 0.95 | 0.939 | 0.96 | 0.899
P fixed | 0.276 | 0.96 | 1.18 | 1.05 | 0.601 | 0.622 | 0.891 | 0.953 | 1.27
Q fixed | 1.08 | 0.752 | 0.736 | 0.988 | 1.04 | 0.816 | 0.823 | 0.946 | 0.856
R fixed | 2.66 | 3.56 | 3.06 | 2.38 | 1.58 | 1.72 | 1.18 | 1.13 | 1.15
V fixed | 0.809 | 0.552 | 0.671 | 0.702 | 0.495 | 0.597 | 0.582 | 0.769 | 0.879
W fixed | 0.791 | 0.737 | 0.807 | 1 | 0.856 | 1.52 | 1.28 | 1.17 | 0.993
Y fixed | 0.781 | 0.919 | 0.902 | 0.826 | 1.41 | 2.03 | 1.44 | 1.1 | 1.04
pThr fixed | 0.449 | 0.389 | 0.599 | 0.309 | 0.335 | 0.494 | 0.678 | 0.852 | 0.895
pTyr fixed | 0.308 | 0.266 | 0.551 | 0.392 | 1.24 | 0.596 | 0.873 | 0.888 | 1.1

STK4, construct: Full length (from UniProt Q13043)
relative phosphorylation
Conditions | at +1 | at +2 | at +3 | at +4 | at -1 | at -2 | at -3 | at -4 | at -5
A fixed | 0.647 | 0.612 | 0.745 | 0.743 | 0.705 | 0.763 | 0.756 | 0.771 | 0.964
D fixed | 0.276 | 0.533 | 0.669 | 0.779 | 1.43 | 1.46 | 1.24 | 1.07 | 1.35
E fixed | 0.245 | 0.413 | 0.627 | 0.668 | 0.881 | 1.09 | 0.916 | 1.12 | 0.833
F fixed | 0.995 | 0.677 | 0.965 | 0.892 | 0.877 | 1.66 | 1.05 | 1.02 | 0.98
G fixed | 0.641 | 0.75 | 0.917 | 0.987 | 1.1 | 0.747 | 1.07 | 0.983 | 0.91
H fixed | 0.703 | 1.33 | 1.12 | 1.05 | 1.26 | 1.15 | 1.06 | 1.27 | 1.04
I fixed | 1.91 | 0.449 | 0.682 | 0.738 | 0.329 | 0.507 | 0.622 | 0.766 | 0.581
K fixed | 0.639 | 3.53 | 1.85 | 1.5 | 1.93 | 0.591 | 0.963 | 1.08 | 1.15
L fixed | 2.6 | 0.759 | 0.779 | 1.01 | 0.822 | 0.596 | 0.577 | 0.749 | 0.773
M fixed | 2.59 | 0.588 | 0.673 | 0.918 | 0.735 | 1 | 0.658 | 0.742 | 0.757
N fixed | 0.558 | 1.13 | 1.21 | 1.24 | 1.45 | 1.28 | 1.25 | 1.06 | 1.02
P fixed | 0.196 | 0.926 | 1.19 | 1.13 | 0.897 | 0.681 | 0.992 | 0.674 | 1.33
Q fixed | 0.685 | 1.23 | 1.07 | 1.3 | 1.17 | 1.03 | 1.35 | 1.34 | 1.24
R fixed | 0.615 | 2.29 | 2.01 | 1.19 | 1.33 | 0.582 | 0.78 | 1.01 | 1.08
V fixed | 1.08 | 0.779 | 0.702 | 0.789 | 0.397 | 0.561 | 0.646 | 0.954 | 0.861
W fixed | 1.79 | 0.495 | 0.884 | 1.27 | 0.776 | 1.59 | 1.63 | 1.17 | 1.09
Y fixed | 0.816 | 0.524 | 0.898 | 0.793 | 0.926 | 1.72 | 1.45 | 1.24 | 1.05
pThr fixed | 0.822 | 1.04 | 0.958 | 0.825 | 0.594 | 1.02 | 0.978 | 0.889 | 0.769
pTyr fixed | 0.627 | 0.715 | 0.937 | 0.899 | 0.908 | 2.04 | 1.39 | 0.975 | 1.09
